Percent by which the pulldown by Rab12 was impaired, against wild type RILP and percent by which the pulldown by Rab12 was inhibited, against wild type RILP data for 2 molecules are collected here from publication PMC8119438.

The assay concerns the target GST-Rab12 (mouse) (UniProt P35283). Description: pull-down; 20 μg GST, GST-Rab12 or GST-Rab12(K71R) on glutathione agarose beads, 18 h at 4 °C with 500 μg lysate of RBL cells transfected with T7-tagged RILP, RILP mutants, RILP-L1 or RILP-L2, 0.5 mM GTPγS; blot anti-T7 (Fig. 2b,c; Supplementary figure S3).
UniProt P35283, sequence (P35283 other isoform, or with tags, fused parts or gaps): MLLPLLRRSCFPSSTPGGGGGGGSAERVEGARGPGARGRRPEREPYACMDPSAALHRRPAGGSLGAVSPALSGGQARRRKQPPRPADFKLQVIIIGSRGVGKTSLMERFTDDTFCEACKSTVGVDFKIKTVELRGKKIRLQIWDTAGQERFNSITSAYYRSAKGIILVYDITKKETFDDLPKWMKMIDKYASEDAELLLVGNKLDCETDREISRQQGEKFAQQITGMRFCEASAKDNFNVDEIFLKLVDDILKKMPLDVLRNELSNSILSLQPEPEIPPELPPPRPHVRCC

B1: T7-RILP(L231A) (natural protein)
chain: MEPRRAAPRLPSQASSSVGAGSAAELVYHLAGALGTELQGLARRFGPDAAAGLVPLVVRALELLEKAAVGPAPDSLQVSAQQAEVELRRLREENQRLRQELGSGPQEERALLRQLKEVTDRQRDELRAHNRDLQRRSQETEALQEQLQRLLLINSELRHKLAAVQTQLRAAQDRERERQIAQDGSSQLAKEQSLEPDAATSDDPVDTQKQPGNLPEAVQCGFSREELKQIAQERNELKANVFLLKEELAYFQRELLTDHRVPGLLLEAMKVAVKKQRRKIKAKMLGTPEEAESSEDEDGSWLLLSNDKEDVPLVPESRIQNFFGLWYRGETEAPEAETSNPASSSLQKGEETPQQPHLQPVNSPPAPNS
For the molecule B1, the percent by which the pulldown by Rab12 was impaired, against wild type RILP came to 85%.

B2: T7-RILP(E233A) (natural protein)
chain: MEPRRAAPRLPSQASSSVGAGSAAELVYHLAGALGTELQGLARRFGPDAAAGLVPLVVRALELLEKAAVGPAPDSLQVSAQQAEVELRRLREENQRLRQELGSGPQEERALLRQLKEVTDRQRDELRAHNRDLQRRSQETEALQEQLQRLLLINSELRHKLAAVQTQLRAAQDRERERQIAQDGSSQLAKEQSLEPDAATSDDPVDTQKQPGNLPEAVQCGFSREELKQILQARNELKANVFLLKEELAYFQRELLTDHRVPGLLLEAMKVAVKKQRRKIKAKMLGTPEEAESSEDEDGSWLLLSNDKEDVPLVPESRIQNFFGLWYRGETEAPEAETSNPASSSLQKGEETPQQPHLQPVNSPPAPNS
The molecule B2 came in with a percent by which the pulldown by Rab12 was inhibited, against wild type RILP of 90%.
